Measured values as given in article PMC13043726, “SFPQ directs histone H3.3 deposition to R-loops in DNA repeats to protect genome stability”.

Tests used:
[1] = target: HA-tagged DAXX, full length (UniProt Q9UER7); experiment: co-immunoprecipitation (IP anti-HA, blot anti-Myc); settings: U-2 OS cells; parent: 1
SFPQ full-length = target: T1, SFPQ full-length (Homo sapiens, UniProt P23246 1-707); experiment: EMSA; EMSA: 10 nM probe, 0-1600 nM SFPQ, 20 mM Tris-HCl pH 7.5, 100 mM KCl, 0.5 mM MgCl2, 0.5 mM EDTA, 0.2 mM DTT, 1% glycerol, room temperature, 30 min (RNaseOUT with RNA); 5% native PAGE, 1xTBE; settings: protein: recombinant, tags: N-terminal His6-myc (vector pNIC-CTHF), chain copies: 2
T1 sequence: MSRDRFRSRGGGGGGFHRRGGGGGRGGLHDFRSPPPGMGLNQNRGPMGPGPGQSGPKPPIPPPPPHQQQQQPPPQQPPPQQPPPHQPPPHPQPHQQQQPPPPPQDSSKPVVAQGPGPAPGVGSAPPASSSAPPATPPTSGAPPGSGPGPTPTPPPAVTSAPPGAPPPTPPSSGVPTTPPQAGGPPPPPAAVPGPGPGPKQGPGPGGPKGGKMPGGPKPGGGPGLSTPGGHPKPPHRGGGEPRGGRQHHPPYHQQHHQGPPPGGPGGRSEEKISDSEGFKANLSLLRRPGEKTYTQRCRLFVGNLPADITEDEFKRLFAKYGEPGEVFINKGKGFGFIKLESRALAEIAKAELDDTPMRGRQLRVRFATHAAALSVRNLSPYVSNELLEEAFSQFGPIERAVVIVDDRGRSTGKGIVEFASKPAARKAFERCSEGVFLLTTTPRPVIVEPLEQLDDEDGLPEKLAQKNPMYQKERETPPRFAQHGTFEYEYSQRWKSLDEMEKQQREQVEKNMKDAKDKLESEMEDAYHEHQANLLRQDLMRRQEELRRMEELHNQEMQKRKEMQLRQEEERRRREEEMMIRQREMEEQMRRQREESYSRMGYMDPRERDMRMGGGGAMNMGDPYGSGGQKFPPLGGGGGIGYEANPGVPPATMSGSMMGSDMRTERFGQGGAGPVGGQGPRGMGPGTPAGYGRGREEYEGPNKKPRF

[2] = label: 5'-6-FAM on strand 1, blunt

Sequence of HA-tagged DAXX, full length (Q9UER7 whole entry): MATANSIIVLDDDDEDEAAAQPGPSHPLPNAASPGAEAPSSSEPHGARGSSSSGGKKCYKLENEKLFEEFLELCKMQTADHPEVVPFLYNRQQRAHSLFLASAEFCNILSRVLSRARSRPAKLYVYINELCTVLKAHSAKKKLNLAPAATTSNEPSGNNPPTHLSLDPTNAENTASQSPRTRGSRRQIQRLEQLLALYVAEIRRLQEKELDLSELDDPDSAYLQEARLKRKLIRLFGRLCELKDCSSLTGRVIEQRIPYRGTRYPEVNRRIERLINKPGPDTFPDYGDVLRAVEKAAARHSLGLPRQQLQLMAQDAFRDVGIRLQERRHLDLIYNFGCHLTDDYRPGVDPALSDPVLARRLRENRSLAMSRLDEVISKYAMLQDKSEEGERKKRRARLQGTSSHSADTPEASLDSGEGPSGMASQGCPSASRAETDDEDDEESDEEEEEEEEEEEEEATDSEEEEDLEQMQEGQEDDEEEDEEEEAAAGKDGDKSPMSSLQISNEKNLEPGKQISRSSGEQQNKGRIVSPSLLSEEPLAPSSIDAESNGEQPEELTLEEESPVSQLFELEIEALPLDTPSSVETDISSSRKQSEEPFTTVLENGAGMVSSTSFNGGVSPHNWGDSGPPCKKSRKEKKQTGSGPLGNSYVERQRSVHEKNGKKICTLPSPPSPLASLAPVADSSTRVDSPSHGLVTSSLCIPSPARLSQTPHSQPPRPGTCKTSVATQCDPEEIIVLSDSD

For “SFPQ proline-rich P-domain fused to GFP and a nuclear localization signal, myc-tagged (from UniProt P23246) T150delinsKP”, the ratio to parent [1] was 0.2.

UUAGGGUUAGGGUUAGGGUUAGGG (ssRNA) [ssRNA TERRA [UUAGGG]4]: binds (SFPQ full-length; label: 5'-6-FAM, single strand).

GGAAUGGAAUGGAAUGGAAUGGA (ssRNA) [ssRNA Pericentric1 (SatIII [GGAAU]4)]: binds (SFPQ full-length; label: 5'-6-FAM, single strand).

B1: 23-nt dsDNA (D1_B:D3_B) (dsDNA)
DNA 1: CTACTACCCCCACCCTCACAACC
DNA 2: GGTTGTGAGGGTGGGGGTAGTAG
B1: no binding (SFPQ full-length; [2]).

B2: 23-nt blunt dsRNA (R1_B:R2_B) (dsRNA)
RNA 1: CUACUACCCCCACCCUCACAACC
RNA 2: GGUUGUGAGGGUGGGGGUAGUAG
B2: no binding (SFPQ full-length; [2]).

B3: 23-nt DNA:RNA hybrid (D1_B:R2_B) (DNA:RNA)
DNA: CTACTACCCCCACCCTCACAACC
RNA: GGUUGUGAGGGUGGGGGUAGUAG
B3: no binding (SFPQ full-length; label: 5'-6-FAM on DNA strand, blunt).

GAAAGAAAGAAAGAAAGAAAGAA (ssRNA) [ssRNA Pericentric2 ([GAAA]5)]: binds (SFPQ full-length; label: 5'-6-FAM, single strand).
